Assay results from patent US20220363769A1 (SORRISO PHARMACEUTICALS, published 2022).

Assays:
[1] = target: T1, recombinant human IL-7Rα-His6-Fc (human, UniProt P16871 21-239); assay: IL-7/IL-7R neutralisation ELISA; inhibition of IL-7 binding to IL-7R
T1 construct: also called hIL-7R; not shown: His6 tag; Fc (captured by anti-human IgG Fc)
T1 chain: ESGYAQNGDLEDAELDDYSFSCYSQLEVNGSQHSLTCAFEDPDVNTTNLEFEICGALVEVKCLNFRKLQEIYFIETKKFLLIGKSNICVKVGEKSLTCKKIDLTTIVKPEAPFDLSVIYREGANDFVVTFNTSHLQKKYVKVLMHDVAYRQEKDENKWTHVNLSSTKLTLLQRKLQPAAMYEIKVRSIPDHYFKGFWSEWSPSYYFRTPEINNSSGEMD
Protocol: A 7-point dilution series of the clones was prepared in 1% BSA (at 2× the assay concentration) starting at 300 nM and using a 3.2 dilution factor. […] Block buffer alone was also added to each plate as blank. […] TMB reaction was stopped after 30 minutes. […]

[2] = target: T1, recombinant human IL-7Rα-His6-Fc; assay: IL-7/IL-7Rα-His6-Fc ELISA; inhibition of IL-7 binding to IL-7R

Row | Binder | EC50 [1] | EC50 [2]
1 | ID-A2U (VHH, V7R-2E9 with E23A; produced from E. coli) VHH: EVQLVESGGGLVQAGGSLRLSCASSISTFSSDAMGWFRQAPGKEREFLAAIGWSGAVTHYSDSVQGRFTISRDNAKNTVYLQMNSLKSEDTGRYYCAEDYDTDVWQYWGQGTQVTVSS | 0.475 nM | –
2 | ID-A17U (VHH, V7R-2E9 with S88A; produced from E. coli) VHH: EVQLVESGGGLVQAGGSLRLSCESSISTFSSDAMGWFRQAPGKEREFLAAIGWSGAVTHYSDSVQGRFTISRDNAKNTVYLQMNSLKAEDTGRYYCAEDYDTDVWQYWGQGTQVTVSS | 0.493 nM | –
3 | ID-A12U (VHH, V7R-2E9 with L48V; produced from E. coli) VHH: EVQLVESGGGLVQAGGSLRLSCESSISTFSSDAMGWFRQAPGKEREFVAAIGWSGAVTHYSDSVQGRFTISRDNAKNTVYLQMNSLKSEDTGRYYCAEDYDTDVWQYWGQGTQVTVSS | 0.179 nM | –
4 | ID-A19U (VHH, V7R-2E9 with G92A; produced from E. coli) VHH: EVQLVESGGGLVQAGGSLRLSCESSISTFSSDAMGWFRQAPGKEREFLAAIGWSGAVTHYSDSVQGRFTISRDNAKNTVYLQMNSLKSEDTARYYCAEDYDTDVWQYWGQGTQVTVSS | 0.188 nM | –
5 | ID-A9U (VHH, V7R-2E9 with E44G; produced from E. coli) VHH: EVQLVESGGGLVQAGGSLRLSCESSISTFSSDAMGWFRQAPGKGREFLAAIGWSGAVTHYSDSVQGRFTISRDNAKNTVYLQMNSLKSEDTGRYYCAEDYDTDVWQYWGQGTQVTVSS | 0.168 nM | –
6 | ID-A21U (VHH, V7R-2E9 with Q113L; produced from E. coli) VHH: EVQLVESGGGLVQAGGSLRLSCESSISTFSSDAMGWFRQAPGKEREFLAAIGWSGAVTHYSDSVQGRFTISRDNAKNTVYLQMNSLKSEDTGRYYCAEDYDTDVWQYWGQGTLVTVSS | 0.436 nM | –
7 | ID-A24U (VHH, V7R-2E9 with R45L, F47W, Q65K, K87R, S88A) VHH: EVQLVESGGGLVQAGGSLRLSCESSISTFSSDAMGWFRQAPGKELEWLAAIGWSGAVTHYSDSVKGRFTISRDNAKNTVYLQMNSLRAEDTGRYYCAEDYDTDVWQYWGQGTQVTVSS | – | 0.819 nM
8 | ID-A20U (VHH, V7R-2E9 with R93V; produced from E. coli) VHH: EVQLVESGGGLVQAGGSLRLSCESSISTFSSDAMGWFRQAPGKEREFLAAIGWSGAVTHYSDSVQGRFTISRDNAKNTVYLQMNSLKSEDTGVYYCAEDYDTDVWQYWGQGTQVTVSS | 0.139 nM | –
9 | ID-A27U (VHH, V7R-2E9 with E44G, R45L, F47W, K87R, S88A) VHH: EVQLVESGGGLVQAGGSLRLSCESSISTFSSDAMGWFRQAPGKGLEWLAAIGWSGAVTHYSDSVQGRFTISRDNAKNTVYLQMNSLRAEDTGRYYCAEDYDTDVWQYWGQGTQVTVSS | – | 0.395 nM
10 | ID-A16U (VHH, V7R-2E9 with K87R; produced from E. coli) VHH: EVQLVESGGGLVQAGGSLRLSCESSISTFSSDAMGWFRQAPGKEREFLAAIGWSGAVTHYSDSVQGRFTISRDNAKNTVYLQMNSLRSEDTGRYYCAEDYDTDVWQYWGQGTQVTVSS | 0.446 nM | –
11 | ID-A6U (VHH, V7R-2E9 with F37V; produced from E. coli) VHH: EVQLVESGGGLVQAGGSLRLSCESSISTFSSDAMGWVRQAPGKEREFLAAIGWSGAVTHYSDSVQGRFTISRDNAKNTVYLQMNSLKSEDTGRYYCAEDYDTDVWQYWGQGTQVTVSS | 0.194 nM | –
12 | ID-A7U (VHH, V7R-2E9 with 44 to 49 EREFLA to GLEWS (so in the source); produced from E. coli) VHH: EVQLVESGGGLVQAGGSLRLSCESSISTFSSDAMGWFRQAPGKGLEWVSAIGWSGAVTHYSDSVQGRFTISRDNAKNTVYLQMNSLKSEDTGRYYCAEDYDTDVWQYWGQGTQVTVSS | 0.513 nM | –
13 | ID-A14U (VHH, V7R-2E9 with Q65K; produced from E. coli) VHH: EVQLVESGGGLVQAGGSLRLSCESSISTFSSDAMGWFRQAPGKEREFLAAIGWSGAVTHYSDSVKGRFTISRDNAKNTVYLQMNSLKSEDTGRYYCAEDYDTDVWQYWGQGTQVTVSS | 0.15 nM | –
14 | ID-A25U (VHH, V7R-2E9 with E44G, F47W, Q65K, K87R, S88A) VHH: EVQLVESGGGLVQAGGSLRLSCESSISTFSSDAMGWFRQAPGKGREWLAAIGWSGAVTHYSDSVKGRFTISRDNAKNTVYLQMNSLRAEDTGRYYCAEDYDTDVWQYWGQGTQVTVSS | – | 0.835 nM
15 | ID-A18U (VHH, V7R-2E9 with S88T; produced from E. coli) VHH: EVQLVESGGGLVQAGGSLRLSCESSISTFSSDAMGWFRQAPGKEREFLAAIGWSGAVTHYSDSVQGRFTISRDNAKNTVYLQMNSLKTEDTGRYYCAEDYDTDVWQYWGQGTQVTVSS | 0.214 nM | –
16 | ID-A26U (VHH, V7R-2E9 with E44G, R45L, Q65K, K87R, S88A) VHH: EVQLVESGGGLVQAGGSLRLSCESSISTFSSDAMGWFRQAPGKGLEFLAAIGWSGAVTHYSDSVKGRFTISRDNAKNTVYLQMNSLRAEDTGRYYCAEDYDTDVWQYWGQGTQVTVSS | – | 0.841 nM
17 | ID-A4U (VHH, V7R-2E9 with S24A; produced from E. coli) VHH: EVQLVESGGGLVQAGGSLRLSCEASISTFSSDAMGWFRQAPGKEREFLAAIGWSGAVTHYSDSVQGRFTISRDNAKNTVYLQMNSLKSEDTGRYYCAEDYDTDVWQYWGQGTQVTVSS | 0.489 nM | –
18 | ID-A10U (VHH, V7R-2E9 with R45L; produced from E. coli) VHH: EVQLVESGGGLVQAGGSLRLSCESSISTFSSDAMGWFRQAPGKELEFLAAIGWSGAVTHYSDSVQGRFTISRDNAKNTVYLQMNSLKSEDTGRYYCAEDYDTDVWQYWGQGTQVTVSS | 0.529 nM | –
19 | ID-A8U (VHH, V7R-2E9 with 44 to 47 EREF to GLEW; produced from E. coli) VHH: EVQLVESGGGLVQAGGSLRLSCESSISTFSSDAMGWFRQAPGKGLEWLAAIGWSGAVTHYSDSVQGRFTISRDNAKNTVYLQMNSLKSEDTGRYYCAEDYDTDVWQYWGQGTQVTVSS | 0.604 nM | –
20 | ID-A11U (VHH, V7R-2E9 with F47W; produced from E. coli) VHH: EVQLVESGGGLVQAGGSLRLSCESSISTFSSDAMGWFRQAPGKEREWLAAIGWSGAVTHYSDSVQGRFTISRDNAKNTVYLQMNSLKSEDTGRYYCAEDYDTDVWQYWGQGTQVTVSS | 0.175 nM | –
21 | ID-A23U (VHH, V7R-2E9 with E44G, R45L, F47W, Q65K, K87R, S88A) VHH: EVQLVESGGGLVQAGGSLRLSCESSISTFSSDAMGWFRQAPGKGLEWLAAIGWSGAVTHYSDSVKGRFTISRDNAKNTVYLQMNSLRAEDTGRYYCAEDYDTDVWQYWGQGTQVTVSS | – | 0.854 nM
22 | ID-A13U (VHH, V7R-2E9 with A49S; produced from E. coli) VHH: EVQLVESGGGLVQAGGSLRLSCESSISTFSSDAMGWFRQAPGKEREFLSAIGWSGAVTHYSDSVQGRFTISRDNAKNTVYLQMNSLKSEDTGRYYCAEDYDTDVWQYWGQGTQVTVSS | 0.615 nM | –
23 | ID-A5U (VHH, V7R-2E9 with I26G; produced from E. coli) VHH: EVQLVESGGGLVQAGGSLRLSCESSGSTFSSDAMGWFRQAPGKEREFLAAIGWSGAVTHYSDSVQGRFTISRDNAKNTVYLQMNSLKSEDTGRYYCAEDYDTDVWQYWGQGTQVTVSS | 0.49 nM | –
24 | ID-A28U (VHH, V7R-2E9 with E44G, R45L, F47W, Q65K, S88A) VHH: EVQLVESGGGLVQAGGSLRLSCESSISTFSSDAMGWFRQAPGKGLEWLAAIGWSGAVTHYSDSVKGRFTISRDNAKNTVYLQMNSLKAEDTGRYYCAEDYDTDVWQYWGQGTQVTVSS | – | 0.46 nM
25 | ID-A15U (VHH, V7R-2E9 with V79L; produced from E. coli) VHH: EVQLVESGGGLVQAGGSLRLSCESSISTFSSDAMGWFRQAPGKEREFLAAIGWSGAVTHYSDSVQGRFTISRDNAKNTLYLQMNSLKSEDTGRYYCAEDYDTDVWQYWGQGTQVTVSS | 0.146 nM | –
